Assay results reported in paper PMC6268379, “Antifungal Activity of Homoaconitate and Homoisocitrate Analogs” (Molecules, 2012).

Legend:
[1] = substrate: O=C(O)CC[C@@](O)(CC(=O)O)C(=O)O; assay: Homoaconitase activity, coupled reaction with HIcDH, NADH at 340 nm; assay type: biochemical, Candida albicans; settings: other: recombinant C. albicans HA; pH 8.5; 20.0 °C
Experimental: (§1) Recombinant C. albicans homoaconitase (HA) and homoisocitrate dehydrogenase (HIcDH) containing oligoHis N-terminal tags were constructed and purified to near homogeneity as described earlier.
Activity of homoaconitase (HA) was measured by a coupled reaction with HIcDH by monitoring the reduction of NAD^+ to NADH at 340 nm. Reaction mixtures containing 50 mM Tris-HCl (pH 8.5), 50 mM KCl, 5 mM MgCl2, 20 mM dithiothreitol, 1 mM NAD^+ and 30 μg/mL of His6-HIcDH in a total volume of 0.9 mL were degassed under argon for 10 min, after which 0.05 mL of His6-HAC solution was added to a final concentration of 10 μg/mL. The reaction was initiated with addition of 0.05 mL of 50 mM (R)-homocitrate. The formation of NADH was measured for 30 s at 20 °C to determine initial reaction velocity. The initial rates were determined using a linear portion of the reaction progress curve.
(§2) The effects of novel compounds on the HA and HIcDH activity was determined by measuring the enzyme activity in standard assay mixtures containing various concentration of an inhibitor (0–10 mM). Inhibitory potential was expressed as IC50 values, i.e., concentrations causing 50% inhibition of enzyme activity in relation to control. All determinations were performed in triplicate.

[2] = substrate: O=C(O)CC[C@H](C(=O)O)[C@@H](O)C(=O)O; assay: Homoisocitrate dehydrogenase activity, NADH absorption at 340 nm; assay type: biochemical; settings: other: recombinant C. albicans HIcDH; pH 7.8; 20.0 °C
Experimental: as §1
Reaction catalyzed by homoisocitrate dehydrogenase (HIcDH) was monitored by measuring the NADH absorption at 340 nm. The standard assay mixture contained 10 mM KCl, 5.0 mM MgCl2, 5 mM NAD^+ and 0.1 mM (2R,3S)-homoisocitrate in 50 mM Hepes-NaOH (pH 7.8) buffer. The reaction mixture with all required components except for the enzyme was preincubated for 3 min and the reaction was started by an addition of the recombinant His6-HIcDH (50 μg). The formation of NADH was measured for 30 s at 20 °C to determine initial reaction velocity. The initial rates were determined using a linear portion of the reaction progress curve.
as §2

Protein	Km [1]	Km [2]
recombinant homoaconitase (HA) (Candida albicans SC5314) (protein, made in house) MMLRFRSFSTTTHLLRGQNLTEKIVQKYAVGLQPSSKKVYSGDYVTIKPAHCMSHDNSWPVATKFMNLGASKVKDNRQIVCTLDHDVQNKSEQNLTKYTNIEKFAKSQGIDFYPAGRGIGHQIMIEEGYAFPLNLTVASDSHSNTYGGIGALGTPIVRTDAASIWATGQTWWQIPPVAKVELIGQLPKGVTGKDIIVALCGIFNNDEVLNHAIEFVGDDAISKLPIDYRLTIANMTTEWGALSGLFPVDETLVEFYQNRLKKLNKPDHPRINNQTIDQLINNKLTSDNDAVYAKHLQIDLSSLSPYISGPNSVKISNSLYDLSQQNIAINKAYLVSCTNSRLSDIQAAADIIKGHKVNPNVEFYVAAASSLVQKDAEQSGAWQTILDAGAKPLPAGCGPCIGLGTGLLKDGEVGISATNRNFKGRMGSKDALAYLASPEVVAASAVLGKIGGPEELNGEPVKQAPRIIKSIETESNSANEAESTSEEASGSIDILPGFPQSIEGELILCNADNINTDGIYPGKYTYQDDITKEQMAKVCMENYDSQFYSKTKPGDIIISGYNFGTGSSREQAATCILARGMKLIVAGSFGNIFSRNSINNALLTLEIPDLINKLRQQYEGNDELTIRTGWFLKWDVTKAQVTVVDGDDNLILTQKVGELGTNLQDIIVKGGLEGWVKSELKTNQ	1.5 mM	–
recombinant homoisocitrate dehydrogenase (HIcDH) (Candida albicans SC5314) (protein) STSSTTLKSLKIGLIPGDGIGREVIPAGKAVLENLPAKHDLQFEFVNLDAGFELFKKTGTALPDETVDVLKKECDGALFGAVSSPTTKVAGYSSPIVALRKKLGLYANVRPVKSVEGIGRPVDMVIVRENTEDLYIKEERVYKKEDGTKVAEAIKRITETASTRIAKMAYEIALQREAVRKGTSGKQLHEKPSVTVTHKSNVLSQSDGLFRETCRAVYDANANEYGGIEYKEQIVDSMVYRMFREPEIFDVVVAPNLYGDILSDGAAALVGSLGVVPSANVGDNFAIGEPCHGSAPDIEGKGISNPVATIRSTALMLEFMGYPEAAATIYQAVDANLAEDKIKTPDLGGNSTTQEVIDDIIRRF	–	74 µM
